Data from patent publication US9717715B2, “Method of combination therapy using an anti-C-Met antibody” (SAMSUNG ELECTRONICS CO., LTD., dated 2017).
Where a chain is given by its changes, count along the chain named.

B1: humanized antibody huAbF46 (H4-heavy chain and H4-light chain) (antibody, V domains shown)
VH: EVQLVESGGGLVQPGGSLRLSCAASGFTFTDYYMSWVRQAPGKGLEWLGFIRNKANGYTTEYSASVKGRFTISRDNSKNTLYLQMNSLRAEDTAVYYCARDNWFAYWGQGTLVTVSS
VL: DIQMTQSPSSLSASVGDRVTITCKSSQSLLASGNQNNYLAWHQQKPGKAPKMLIIWASTRVSGVPSRFSGSGSGTDFTLTISSLQPEDFATYYCQQSYSAPLTFGQGTKVEIKR
B2: huAbF46-H4-A1 (antibody, V domains shown)
VH: B1 VH
VL: B1 VL with A100R, L102Y
B3: L3-11Y (antibody, V domains shown)
VH: B1 VH
VL: B1 VL with S32W, H42Y, A100R, L102Y
B4: huAbF46-H4-A1 (U6-HC7) (antibody)
heavy: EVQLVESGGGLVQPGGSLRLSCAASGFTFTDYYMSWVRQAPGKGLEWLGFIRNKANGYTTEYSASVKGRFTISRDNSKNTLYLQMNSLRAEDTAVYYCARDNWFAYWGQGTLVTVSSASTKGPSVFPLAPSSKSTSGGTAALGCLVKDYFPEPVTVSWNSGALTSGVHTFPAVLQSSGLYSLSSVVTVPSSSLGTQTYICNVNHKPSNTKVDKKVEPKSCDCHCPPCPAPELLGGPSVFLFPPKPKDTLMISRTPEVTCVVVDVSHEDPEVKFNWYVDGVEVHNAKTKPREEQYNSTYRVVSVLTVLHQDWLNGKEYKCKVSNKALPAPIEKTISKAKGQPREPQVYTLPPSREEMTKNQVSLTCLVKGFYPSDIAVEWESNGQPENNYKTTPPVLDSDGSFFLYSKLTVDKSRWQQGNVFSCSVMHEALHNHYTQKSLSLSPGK
light: DIQMTQSPSSLSASVGDRVTITCKSSQSLLASGNQNNYLAWYQQKPGKAPKMLIIWASTRVSGVPSRFSGSGSGTDFTLTISSLQPEDFATYYCQQSYSRPYTFGQGTKVEIKRTVAAPSVFIFPPSDEQLKSGTASVVCLLNNFYPREAKVQWKVDNALQSGNSQESVTEQDSKDSTYSLSSTLTLSKADYEKHKVYACEVTHQGLSSPVTKSFNRGEC
B5: huAbF46-H4-A1 (IgG2 hinge) (antibody)
heavy: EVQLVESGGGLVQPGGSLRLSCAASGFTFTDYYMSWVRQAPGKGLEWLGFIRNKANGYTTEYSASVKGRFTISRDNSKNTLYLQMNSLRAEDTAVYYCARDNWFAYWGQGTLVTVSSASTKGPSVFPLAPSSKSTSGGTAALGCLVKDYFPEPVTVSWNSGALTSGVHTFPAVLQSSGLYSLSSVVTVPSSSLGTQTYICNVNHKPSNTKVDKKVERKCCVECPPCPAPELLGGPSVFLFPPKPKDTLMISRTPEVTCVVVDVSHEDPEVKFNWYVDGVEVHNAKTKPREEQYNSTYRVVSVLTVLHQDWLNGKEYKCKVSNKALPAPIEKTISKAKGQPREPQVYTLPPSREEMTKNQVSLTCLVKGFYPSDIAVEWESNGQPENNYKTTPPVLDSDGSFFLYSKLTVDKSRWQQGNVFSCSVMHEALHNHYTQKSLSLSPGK
light: B4 light
B6: huAbF46-H4-A1 (IgG2 Fc) (antibody)
heavy: EVQLVESGGGLVQPGGSLRLSCAASGFTFTDYYMSWVRQAPGKGLEWLGFIRNKANGYTTEYSASVKGRFTISRDNSKNTLYLQMNSLRAEDTAVYYCARDNWFAYWGQGTLVTVSSASTKGPSVFPLAPCSRSTSESTAALGCLVKDYFPEPVTVSWNSGALTSGVHTFPAVLQSSGLYSLSSVVTVPSSNFGTQTYTCNVDHKPSNTKVDKTVERKCCVECPPCPAPPVAGPSVFLFPPKPKDTLMISRTPEVTCVVVDVSHEDPEVQFNWYVDGVEVHNAKTKPREEQFNSTFRVVSVLTVVHQDWLNGKEYKCKVSNKGLPAPIEKTISKTKGQPREPQVYTLPPSREEMTKNQVSLTCLVKGFYPSDIAVEWESNGQPENNYKTTPPMLDSDGSFFLYSKLTVDKSRWQQGNVFSCSVMHEALHNHYTQKSLSLSPGK
light: B4 light

Tests used:
human c-Met protein [1] = target: T1, human c-Met protein (human, UniProt P08581); assay: SPR (Biacore), antibody immobilised on CM5 chip, human c-Met protein injected at 0.39-100 nM
[2] = target: c-Met on human cancer cells (human, UniProt P08581); assay: cell-based or functional assay
human c-Met protein [3] = target: T1, human c-Met protein; assay: SPR (Biacore), by the method of Example 8

Binder | Kd (human c-Met protein [1]) [nM] | koff (human c-Met protein [1]) [s⁻¹] | kon (human c-Met protein [1]) [M⁻¹ s⁻¹] | Akt phosphorylation (%) in Caki-1 cells, 5 ug/ml, 30 min [2] [%] | relative cell viability (%) of MKN45 cells, 72 h [2] [%] | Kd (human c-Met protein [3]) [nM]
B1 | 2.19 | 0.000723 | 329000 | 29.1 | 77 | 
B2 | 0.06 | 4.53e-05 | 739000 | 15.3 | 74 | 
B3 |  |  |  |  |  | < 0.01
B4 |  |  |  | ≤ 18 | ~60 | 
B5 |  |  |  | ≤ 18 | ~60 | 
B6 |  |  |  | ≤ 18 | ~60 | 
